Test results from patent US20120315270A1.

Legend:
[1] = target: RSV F0 Fd (respiratory syncytial virus, strain A2) (UniProt P03420); experiment: densitometry of SDS-PAGE of the gel filtration complex peak
[2] = target: RSV F glycoprotein on GFP-expressing RSV (respiratory syncytial virus) (UniProt P03420)

| Substance | Fabs per trimer (Fabs per trimer) [1] | EC50 (read off the curve), neutralization of GFP-expressing RSV on HEp-2 cells, flow cytometry [2] |
| --- | --- | --- |
| palivizumab Fab | 2.97 | – |
| SYNAGIS® IgG (palivizumab) (antibody) | – | 500 pM |
